These results are taken from publication PMC7904085.

The target in this assay is Protein A/G. The experiment in a line: single-molecule TIRF microscopy, saturation curve.

In turn, “Mouse monoclonal anti-V5 tag antibody [SV5-Pk1]” displayed a dissociation constant (Kd) of 4.6 nM.
